Legend:
Saccharomyces cerevisiae [1] = experiment: protein stability index of tFT-peptide fusion in wild type (PSI (0-1 scale)); higher = more stable (slower turnover); settings: genetic background: wild type
Method: (§1)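 MPS profiling in S. cerevisiae of two library types built from selected 12-aa C-degron peptides (IN1, IN2, LN1, LN3, VN2, R1-R5, W1-W3, Atg1 and Rpa12 C-termini): saturation mutagenesis libraries and C-terminal +1 capping libraries (13 aa). Each peptide is fused to the C-terminus of a sfGFP-mCherry timer, after a GGGS linker. Cells are FACS-sorted into 8 mCherry/sfGFP bins and sequenced. PSI runs from 0 (unstable) to 1 (stable), measured once in wild type and in the das1Δ or doa10Δ background.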

Saccharomyces cerevisiae [2] = experiment: protein stability index of tFT-peptide fusion in deletion strain of DOA10 (PSI (0-1 scale)); higher = more stable (slower turnover)
Method: as §1

Saccharomyces cerevisiae [3] = experiment: protein stability index of tFT-peptide fusion in deletion strain of DAS1 (PSI (0-1 scale)); higher = more stable (slower turnover)
Method: as §1
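Throughout, for protein stability index of tFT-peptide fusion in deletion strain of DAS1: PSI is a weighted mean of each variant's read distribution over the sorted stability bins, computed only for variants having over 10 reads in total.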
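Throughout, for protein stability index of tFT-peptide fusion in deletion strain of DOA10: PSI per variant is the weighted mean of its sequencing read distribution over the sorted stability bins, counting only variants with over 10 reads summed across bins.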
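Throughout, for protein stability index of tFT-peptide fusion in wild type: PSI derived as read-weighted mean over the 8 sorting bins, only variants exceeding 10 total reads kept, mCherry placed adjacent to the peptide and sfGFP distal.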

Sequence | protein stability index (Saccharomyces cerevisiae [1]) | protein stability index (Saccharomyces cerevisiae [2]) | protein stability index (Saccharomyces cerevisiae [3])
AIRLPMCPLLLR | 0.27 | 0.649 | 
AISLPMCPLLLR | 0.226 | 0.655 | 
AITFPMCPLLLR | 0.3 | 0.676 | 
AITLIMCPLLLR | 0.465 | 0.658 | 
AITLPGCPLLLR | 0.327 | 0.683 | 
AITLPMCPALLR | 0.493 | 0.672 | 
AITLPMCPLLLC | 0.134 | 0.184 | 
AITLPMCPLLLRK | 0.43 | 0.67 | 
AITLPMCPLLLRM | 0.172 | 0.573 | 
AITLPMCPLLLRQ | 0.34 | 0.634 | 
AITLPMCPLLLS | 0.405 | 0.443 | 
AITLPMCPLLLT | 0.449 | 0.491 | 
AITLPMCPLLPR | 0.667 | 0.673 | 
AITLPMHPLLLR | 0.25 | 0.643 | 
AITLRMCPLLLR | 0.389 | 0.643 | 
AITQPMCPLLLR | 0.508 | 0.701 | 
ATTLPMCPLLLR | 0.383 | 0.673 | 
CGVSLPILLFFR | 0.0581 | 0.622 | 
CLVMLPILLFFR | 0.0682 | 0.426 | 
PSLAASFLRVVG | 0.641 |  | 0.642
PSLAASFQRVVG | 0.692 |  | 0.672
PSLAASFTRVVG | 0.647 |  | 0.648
PSLAASFWIVVG | 0.418 |  | 0.421

Sequence | protein stability index (Saccharomyces cerevisiae [1]) | protein stability index (Saccharomyces cerevisiae [2]) | protein stability index (Saccharomyces cerevisiae [3])
PSLAASFWMVVG | 0.525 |  | 0.637
PSLAASFWRMVG | 0.151 |  | 0.646
PSLAASFWRVIG | 0.151 |  | 0.677
PSLAASFWRVRG | 0.666 |  | 0.683
PSLAASFWRVTG | 0.142 |  | 0.687
PSLAASFWRVVF | 0.699 |  | 0.701
PSLAASFWRVVGD | 0.689 |  | 0.691
PSLAASFWRVVGW | 0.714 |  | 0.699
PSLAASFWRVVK | 0.661 |  | 0.688
PSLAASRWRVVG | 0.156 |  | 0.682
PSLAAWFWRVVG | 0.147 |  | 0.706
PSLAAYFWRVVG | 0.142 |  | 0.677
PSLANSFWRVVG | 0.269 |  | 0.711
PSLATSFWRVVG | 0.158 |  | 0.687
PSLTASFWRVVG | 0.156 |  | 0.693
PSTAASFWRVVG | 0.135 |  | 0.701
QLIQPLPVQFLN | 0.0736 |  | 0.616
RLHQPLPVQFLN | 0.06 |  | 0.581
RLIQDLPVQFLN | 0.14 |  | 0.588
RLIQHLPVQFLN | 0.0489 |  | 0.636
RLIQPGPVQFLN | 0.102 |  | 0.611
RLIQPLPTQFLN | 0.215 |  | 0.638
RLIQPLPVHFLN | 0.0347 |  | 0.587

Sequence | protein stability index (Saccharomyces cerevisiae [1]) | protein stability index (Saccharomyces cerevisiae [2]) | protein stability index (Saccharomyces cerevisiae [3])
RLIQPLPVKFLN | 0.184 |  | 0.584
RLIQPLPVQFLC | 0.0371 |  | 0.566
RLIQPLPVQFLNG | 0.626 |  | 0.655
RLIQPLPVQFLNW | 0.667 |  | 0.686
RLIQPQPVQFLN | 0.0694 |  | 0.593
RLIQPVPVQFLN | 0.123 |  | 0.583
RLLQPLPVQFLN | 0.037 |  | 0.595
RLNQPLPVQFLN | 0.0569 |  | 0.605
RLSQPLPVQFLN | 0.0622 |  | 0.607
RQIQPLPVQFLN | 0.124 |  | 0.604
RRIQPLPVQFLN | 0.0626 |  | 0.601
SKILRQKMNHQN | 0.153 |  | 0.677
TSLAASFWRVVG | 0.125 |  | 0.688
VGGAVGGWRLVG | 0.156 |  | 0.67
VKHKKGQKQKIN | 0.105 |  | 0.716
VKILRQKMNHQN | 0.174 |  | 0.67
VLGAVGGWRLVG | 0.133 |  | 0.673
VLIQPLPVQFLN | 0.0725 |  | 0.603
VRGAEGGWRLVG | 0.242 |  | 0.686
VRGALGGWRLVG | 0.171 |  | 0.669
VRGATGGWRLVG | 0.188 |  | 0.682
VRGAVGDWRLVG | 0.215 |  | 0.658
VRGAVGEWRLVG | 0.182 |  | 0.696

Sequence | protein stability index (Saccharomyces cerevisiae [1]) | protein stability index (Saccharomyces cerevisiae [2]) | protein stability index (Saccharomyces cerevisiae [3])
VRGAVGGFRLVG | 0.661 |  | 0.677
VRGAVGGLRLVG | 0.628 |  | 0.681
VRGAVGGWMLVG | 0.456 |  | 0.698
VRGAVGGWQLVG | 0.28 |  | 0.689
VRGAVGGWRIVG | 0.325 |  | 0.678
VRGAVGGWRLVGC | 0.638 |  | 0.694
VRGAVGGWRLVS | 0.148 |  | 0.686
VRGAVGGWSLVG | 0.633 |  | 0.689
VRGAVGGWTLVG | 0.49 |  | 0.664
VRGAVGNWRLVG | 0.14 |  | 0.69
VRGAVKGWRLVG | 0.148 |  | 0.68
VRGCVGGWRLVG | 0.148 |  | 0.655
VRGWVGGWRLVG | 0.134 |  | 0.681
VRNAVGGWRLVG | 0.137 |  | 0.674
VRQAVGGWRLVG | 0.132 |  | 0.684
VRTAVGGWRLVG | 0.137 |  | 0.678
VRYAVGGWRLVG | 0.0921 |  | 0.68
VSGAVGGWRLVG | 0.143 |  | 0.672
VVGAVGGWRLVG | 0.125 |  | 0.69
YLIQPLPVQFLN | 0.0777 |  | 0.624

From the supplement of paper PMC10724198
